Publication doi:10.1101/2024.06.03.596960 (bioRxiv, 2024)

Target: His10-TEV-BACH1^BTB (UniProt O14867)
Assay: AlphaScreen or HTRF

Chain of BACH2 BTB domain (residues 8-131) (Q9BYV9 8-131): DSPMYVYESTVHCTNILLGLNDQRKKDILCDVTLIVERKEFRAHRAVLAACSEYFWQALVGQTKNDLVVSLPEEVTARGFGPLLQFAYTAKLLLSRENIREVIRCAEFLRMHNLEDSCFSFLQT
Chain of KEAP1 BTB domain (residues 48-180) (Q14145 48-180): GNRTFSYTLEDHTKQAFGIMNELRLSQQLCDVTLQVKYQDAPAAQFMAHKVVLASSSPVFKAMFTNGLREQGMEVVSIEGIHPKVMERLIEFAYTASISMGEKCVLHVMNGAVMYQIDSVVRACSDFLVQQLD

| Molecule | IC50 [nM] |
| --- | --- |
| SKP1-FBXO22(R376P) (from UniProt P63208 2-163; Q8NEZ5 12-403) (complex) | 1350 |
| SKP1-FBXO22(R367W) (cancer-associated, TCGA) (from UniProt P63208 2-163; Q8NEZ5 12-403) (complex) | 1480 |
| SKP1-FBXO22(R367L) (cancer-associated, TCGA) (from UniProt P63208 2-163; Q8NEZ5 12-403) (complex) | 1040 |
| SKP1-FBXO22(R376D) (from UniProt P63208 2-163; Q8NEZ5 12-403) (complex) | 900 |
| SKP1-FBXO22(Q307R) (cancer-associated, TCGA) (from UniProt P63208 2-163; Q8NEZ5 12-403) (complex) | 165 |
| SKP1-FBXO22(Q307E) (cancer-associated, TCGA) (from UniProt P63208 2-163; Q8NEZ5 12-403) (complex) | 575 |

Target: biotinylated ^AviSKP1-FBXO22(12-403) (UniProt P63208)
Assay: AlphaScreen or HTRF

Chain of biotinylated ^AviSKP1-FBXO22(12-403) (P63208 2-163, chain 1 of 2): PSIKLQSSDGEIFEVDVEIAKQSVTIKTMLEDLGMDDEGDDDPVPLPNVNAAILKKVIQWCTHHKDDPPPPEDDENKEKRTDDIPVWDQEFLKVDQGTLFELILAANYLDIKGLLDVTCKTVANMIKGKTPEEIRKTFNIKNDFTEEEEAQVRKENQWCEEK
Chain of biotinylated ^AviSKP1-FBXO22(12-403) (Q8NEZ5 12-403, chain 2 of 2, further chain): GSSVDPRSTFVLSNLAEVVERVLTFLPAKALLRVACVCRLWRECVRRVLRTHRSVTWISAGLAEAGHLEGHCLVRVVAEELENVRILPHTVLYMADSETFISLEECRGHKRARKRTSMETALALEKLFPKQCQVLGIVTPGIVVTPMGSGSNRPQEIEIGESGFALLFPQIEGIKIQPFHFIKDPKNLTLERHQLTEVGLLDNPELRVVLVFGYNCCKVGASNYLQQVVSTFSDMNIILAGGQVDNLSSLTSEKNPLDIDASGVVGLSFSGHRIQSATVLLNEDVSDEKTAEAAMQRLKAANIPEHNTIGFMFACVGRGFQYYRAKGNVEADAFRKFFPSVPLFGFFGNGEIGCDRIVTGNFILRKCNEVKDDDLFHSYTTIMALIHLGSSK

| Molecule | IC50 [nM] |
| --- | --- |
| BACH2 BTB domain (residues 8-131) (from UniProt Q9BYV9 8-131) (domain or fragment) | 85 |
| BACH1^BTB F125A (from UniProt O14867 7-128) (domain or fragment) | 7460 |
| BACH1^BTB Y11A (from UniProt O14867 7-128) (domain or fragment) | 2660 |
| BACH1^BTB S13A (from UniProt O14867 7-128) (domain or fragment) | 183 |
| BACH1^BTB S13D (from UniProt O14867 7-128) (domain or fragment) | 2460 |
| KEAP1 BTB domain (residues 48-180) (from UniProt Q14145 48-180) (domain or fragment) | 150 |
| BACH1 BTB domain (residues 7-128), wild type, tag-free (from UniProt O14867 7-128) (domain or fragment) | 64 |
| BACH1^BTB F9A (from UniProt O14867 7-128) (domain or fragment) | 320 |
| BACH1^BTB E12R (from UniProt O14867 7-128) (domain or fragment) | 149 |
| BACH1^BTB Y11F (from UniProt O14867 7-128) (domain or fragment) | 140 |
| BACH1^BTB F125Y (from UniProt O14867 7-128) (domain or fragment) | 656 |

Target: biotinylated ^AviSKP1-FBXO22(12-403) (UniProt P63208)
Assay: AlphaScreen or HTRF
Remark: another data set of the same source

| Molecule | IC50 [nM] |
| --- | --- |
| ZBTB16 BTB domain (residues 1-130) (domain or fragment) MDLTKMGMIQLQNPSHPTGLLCKANQMRLAGTLCDVVIMVDSQEFHAHRTVLACTSKMFEILFHRNSQHYTLDFLSPKTFQQILEYAYTATLQAKAEDLDDLLYAAEILEIEYLEEQCLKMLETIQASDD | 622 |
